Measurements as given in patent US20180037663A1 (OHIO STATE INNOVATION FOUNDATION, published 2018).

Target: T1, bovine submaxillary mucin (bovine)
T1 construct: Used as surrogate antigen for TAG-72; also called BSM
Assay: binding study of FIG. 14 (inhibition dot blot), compared with 3E8.IgG

B1: 3E8.scFv (scFv)
scFv: GSSGDIVMTQSPDSLAVSLGERATINCKSSQSVLYSSNNKNYLAWYQQKPGQPPKLLIYWASTRESGVPDRFSGSGSGTDFTLTISSLQAEDVAVYYCQQYYSYPLTFGGGTKVEIKLSADDAKKDAAKKDDAKKDDAKKDLQVQLVQSGAEVKKPGASVKVSCKASGYTFTDHAIHWVRQAPGQRLEWMGYFSPGNDDFKYSQKFQGRVTITADKSASTAYMELSSLRSEDTAVYYCARSWIMQYWGQGTLVTVSS
notes: Monomeric scFv purified from the E. coli periplasm; Labelled at lysines with fluorescein (dot blots) or biotin (HRP dot blot, IHC); also called scFv of 3E8; single chain variable fragment of 3E8
- fold worse binder than 3E8.IgG: ~16 fold
